Data: patent US10434074B2, “Peptide and small molecule agonists of EPHA and uses thereof” (CASE WESTERN RESERVE UNIVERSITY, priority 2004, dated 2019)

Experiments:
Akt and ERK = Akt and ERK activities in DU145 cells expressing WT or dominant negative EphA2; format: cell-based, human; settings: DU145 with dominant negative EphA2
Description: (§1) FIGS. 46(A-D) illustrate A) EphA2 is overexpressed in osseous but not lymph node metastases of human prostate cancer specimens obtained from rapid autopsy. […] DU145 cells were infected with a retroviral vector expressing wild type (WT) or a dominant negative mutant EphA2 where the entire cytoplasmic tail was replaced with GFP. An antibody against the ectodomain of EphA2 was used to determine the expression of endogenous (vector control), WT- and DN-EphA2. D) Upregulation of EphA2 by Ras but not Myc oncogene in NRP152 normal rat prostate epithelial cells.
as §1, with “We observed that” for “FIGS. 46(A-D) illustrate A)”, “autopsy (FIG. 46A).” for “autopsy.”, “DN-EphA2 (FIG. 46C). We further observed upregulation” for “DN-EphA2. D) Upregulation”, “cells (FIG. 46D).” for “cells.”

primary keratinocytes = assay: Clonal growth of primary keratinocytes; format: cell-based, mouse
Description: FIGS. 43(A-C) illustrate EphA2 kinase is required for ephrin-A1-induced inhibition of ERK1/2 MAP kinase and growth suppression in primary keratinocytes. A) EphA kinase activation by ephrin-A1 in EphA2^+/+ and EphA2^+/− but not EphA2^−/− keratinocytes. Keratinocytes were isolated from newborn (P1) mice and cultured on matrigel-coated culture plates. They were stimulated with 1.0 μg/ml of ephrin-A1-Fc for 10 min. The unstimulated cells were used as control. EphA receptors including EphA2 were precipitated from the cell lysates using ephrin-A1-Fc, and were subjected to immunoblot analysis with rabbit polyclonal anti-phospho-EphA/B antibody. Membrane was stripped and blotted again for total EphA2. B) Ephrin-A1 stimulation leads to inactivation of ERK1/2 MAPK in EphA2^+/+ and EphA2^+/− but not EphA2^−/− keratinocytes. Total cell lysates were analyzed by immunoblot with the indicated antibodies. The band densities from p-ERK blot were normalized to the corresponding total ERK1 blot. The ratios of p-ERK between ephrin-A1-treated and untreated were shown in the lower panel. C). Ephrin-A1 stimulation inhibits clonal growth of EphA2^+/+ and EphA2^+/− but not EphA2^−/− keratinocytes. Primary keratinocytes were plated on 6-well plates coated with matrigel at 5,000 cells/well, and allowed to grow for 12 days in the presence of Fc (0.5 μg/ml) or ephrin-A1-Fc (1.0 μg/ml).

EphA1 = target: T1, EphA1 (Homo sapiens, UniProt P21709); assay: Proliferation of DU145 cells expressing EphA1; format: cell-based; settings: 10% serum 7 days or 0.5% serum 18 days
T1 construct: expressed in transfected cells; host or cells: DU145 cells, retroviral infection
T1 sequence (P21709 26-976): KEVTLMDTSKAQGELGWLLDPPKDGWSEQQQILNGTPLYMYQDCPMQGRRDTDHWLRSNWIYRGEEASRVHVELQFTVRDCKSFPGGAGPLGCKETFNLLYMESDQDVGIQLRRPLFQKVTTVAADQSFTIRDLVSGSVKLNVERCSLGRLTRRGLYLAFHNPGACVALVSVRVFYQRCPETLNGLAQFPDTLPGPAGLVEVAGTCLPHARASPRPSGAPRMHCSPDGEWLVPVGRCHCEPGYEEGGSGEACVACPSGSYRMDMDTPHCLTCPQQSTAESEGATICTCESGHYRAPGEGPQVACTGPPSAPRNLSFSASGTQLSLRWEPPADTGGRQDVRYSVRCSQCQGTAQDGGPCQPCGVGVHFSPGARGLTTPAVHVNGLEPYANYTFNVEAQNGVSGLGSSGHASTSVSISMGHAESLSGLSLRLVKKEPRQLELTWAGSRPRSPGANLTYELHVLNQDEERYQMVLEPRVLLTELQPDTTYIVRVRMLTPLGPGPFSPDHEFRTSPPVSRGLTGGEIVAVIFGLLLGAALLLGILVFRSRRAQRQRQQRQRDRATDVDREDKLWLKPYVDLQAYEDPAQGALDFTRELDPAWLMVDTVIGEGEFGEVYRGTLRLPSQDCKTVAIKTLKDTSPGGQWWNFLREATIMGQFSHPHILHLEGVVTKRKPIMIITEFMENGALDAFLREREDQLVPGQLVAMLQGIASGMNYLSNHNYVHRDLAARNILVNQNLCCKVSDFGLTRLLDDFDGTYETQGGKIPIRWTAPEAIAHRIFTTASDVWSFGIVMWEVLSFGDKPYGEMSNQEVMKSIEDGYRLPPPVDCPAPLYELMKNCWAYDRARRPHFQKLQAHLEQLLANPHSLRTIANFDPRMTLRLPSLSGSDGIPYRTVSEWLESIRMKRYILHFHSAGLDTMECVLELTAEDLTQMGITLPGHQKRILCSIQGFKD
Description: (§2) FIGS. 49(A-B) illustrate expression of EphA1 in DU145 cells infected with vector control (control) and EphA1 expression retrovirus. FIG. 49B illustrates that about 2,000 cells were plated on 12-well plates in the regular culture medium (10% serum) and low serum medium (0.5%). Cell were cultured for 7 days (10% serum) or 18 days (0.5%). FIG. 49B illustrates that proliferation of prostatic epithelial cells expressing EphA1 and activated with Ephrin-A1 is inhibited.
as §2, with “DU145 human prostatic epithelial cells were infected with retrovirus expressing EphA1. FIG. 49A illustrates” for “FIGS. 49(A-B) illustrate”

GFP-PC-3 cells = assay: PC3 xenograft growth in nude mice; format: in vivo; set-up: s.c. tumor growth: dose or concentration left out as unconfirmed
Description: Frozen sections were stained with biotinylated rabbit anti-human Fc, and HRP-conjugated streptoavidin.

B1: ephrin-A1-Fc: ephrin-A1 dimerized by fusion to the heavy chain of human IgG1 (protein)
chain: DRHTVFWNSSNPKFRNEDYTIHVQLNDYVDIICPHYEDHSVADAAMEQYILYLVEHEEYQLCQPQSKDQVRWQCNRPSAKHGPEKLSEKFQRFTPFTLGKEFKEGHSYYYISKPIHQHEDRCLRLKVTVSGKITHSPQAHDNPQEKRLAADDPEVRVLHSIGHS
modifications: left off: a dimerising Fc or GST
notes: ephrin-A1 dimerized by fusion to the heavy chain of human IgG1
In the case of B1, the “Akt and ERK activities” value (Akt and ERK) is reported as “abolished the inhibitory effects”, the clonal growth (primary keratinocytes; EphA2 knockout keratinocytes) is reported as “resistant to ephrin-A1-induced growth inhibition” and the clonal growth (primary keratinocytes; wild type and heterozygous, 1.0 μg/ml, 12 days) is reported as “suppressed the growth of wild type and heterozygous keratinocytes”. For the same molecule, the “proliferation of cells expressing EphA1” value (EphA1) was “is inhibited”, the targeting to tumors (GFP-PC-3 cells; frozen sections stained with anti-human Fc) was “target to GFP-PC-3 tumors” and the “tumor growth after three weeks of treatment” value (GFP-PC-3 cells; i.p.) was “lack of effects after three weeks of treatment”. For the same molecule, the s.c. tumor growth (GFP-PC-3 cells; i.p., vs human IgG) was “inhibited s.c. tumor growth”.
